Laboratory results: IntAct's records for PubMed 9830048

B1: Synaptotagmin-1 (Rattus norvegicus (Rat)), P21707 (parent)
chain: MVSASHPEALAAPVTTVATLVPHNATEPASPGEGKEDAFSKLKQKFMNELHKIPLPPWALIAIAIVAVLLVVTCCFCVCKKCLFKKKNKKKGKEKGGKNAINMKDVKDLGKTMKDQALKDDDAETGLTDGEEKEEPKEEEKLGKLQYSLDYDFQNNQLLVGIIQAAELPALDMGGTSDPYVKVFLLPDKKKKFETKVHRKTLNPVFNEQFTFKVPYSELGGKTLVMAVYDFDRFSKHDIIGEFKVPMNTVDFGHVTEEWRDLQSAEKEEQEKLGDICFSLRYVPTAGKLTVVILEAKNLKKMDVGGLSDPYVKIHLMQNGKRLKKKKTTIKKNTLNPYYNESFSFEVPFEQIQKVQVVVTVLDYDKIGKNDAIGKVFVGYNSTGAELRHWSDMLANPRRPIAQWHTLQVEEEVDAMLAVKK

Variants of: B1
Conditions: with cac1b_rat Cacna1b

| effect of a mutation on the interaction | Variant |
| --- | --- |
| decreasing interaction | K326A;K327A |

Variants of: B1
Conditions: with ap2a2_rat Ap2a2, P18484
Chain of ap2a2_rat Ap2a2, P18484 (P18484 whole entry): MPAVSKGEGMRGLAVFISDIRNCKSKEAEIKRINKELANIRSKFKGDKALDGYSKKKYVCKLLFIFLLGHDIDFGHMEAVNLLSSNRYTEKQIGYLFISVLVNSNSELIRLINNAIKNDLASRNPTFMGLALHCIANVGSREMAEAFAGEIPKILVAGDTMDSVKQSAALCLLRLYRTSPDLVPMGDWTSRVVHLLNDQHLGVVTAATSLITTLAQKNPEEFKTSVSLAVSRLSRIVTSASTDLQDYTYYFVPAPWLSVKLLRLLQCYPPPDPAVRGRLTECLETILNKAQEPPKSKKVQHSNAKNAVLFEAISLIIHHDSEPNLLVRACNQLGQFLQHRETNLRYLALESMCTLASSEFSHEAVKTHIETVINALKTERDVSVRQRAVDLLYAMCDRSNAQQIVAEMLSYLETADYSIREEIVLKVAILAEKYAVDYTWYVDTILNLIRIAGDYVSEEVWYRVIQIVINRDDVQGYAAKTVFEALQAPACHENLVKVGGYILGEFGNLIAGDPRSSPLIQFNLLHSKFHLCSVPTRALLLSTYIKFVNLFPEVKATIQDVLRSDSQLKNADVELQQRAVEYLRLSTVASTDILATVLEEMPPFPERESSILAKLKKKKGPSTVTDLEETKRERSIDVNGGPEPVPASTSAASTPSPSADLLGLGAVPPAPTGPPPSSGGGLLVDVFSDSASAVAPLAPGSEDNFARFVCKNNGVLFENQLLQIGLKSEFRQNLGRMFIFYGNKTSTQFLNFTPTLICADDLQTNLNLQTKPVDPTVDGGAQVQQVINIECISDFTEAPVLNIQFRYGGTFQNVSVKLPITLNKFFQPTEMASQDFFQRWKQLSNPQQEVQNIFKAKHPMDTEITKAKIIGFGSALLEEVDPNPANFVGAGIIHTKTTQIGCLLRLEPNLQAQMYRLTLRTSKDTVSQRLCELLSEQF

| effect of a mutation on the interaction | Variant |
| --- | --- |
| decreasing interaction | K326A;K327A |
